Laboratory results from publication PMC6948192, “Structural Organization and Dynamics of Homodimeric Cytohesin Family Arf GTPase Exchange Factors in Solution and on Membranes” (Structure(London, England:1993), 2019).

Experiments:
[1] = target: the molecule itself; assay: SEC-SAXS; ARNOFL, no phosphoinositide head group; BM29 beamline (ESRF), Bio Sec300 HPLC column, 600 μg in 60 μL injected
[2] = target: the molecule itself; assay: SEC-SAXS; BioCAT 18-ID (APS); samples with 1.2 molar excess of IP4, concentrated to 10-20 mg/ml, Superdex-200 Increase; 20 mM Tris pH 8.0, 150 mM NaCl, 2 mM MgCl2, 0.1% 2-mercaptoethanol, 5% glycerol, 1 μM IP4; peak concentration ∼80 μM (Grp1 14-399), ∼1 mg/mL (Grp1 14-390)

B1: Full-length ARNO carrying a 3G sequence in the membrane-binding site (ARNOFL) (natural protein, human, UniProt Q99418 1-400, looked up)
chain: MEDGVYEPPDLTPEERMELENIRRRKQELLVEIQRLREELSEAMSEVEGLEANEGSKTLQRNRKMAMGRKKFNMDPKKGIQFLVENELLQNTPEEIARFLYKGEGLNKTAIGDYLGEREELNLAVLHAFVDLHEFTDLNLVQALRQFLWSFRLPGEAQKIDRMMEAFAQRYCLCNPGVFQSTDTCYVLSFAVIMLNTSLHNPNVRDKPGLERFVAMNRGINEGGDLPEELLRNLYDSIRNEPFKIPEDDGNDLTHTFFNPDREGWLLKLGGGRVKTWKRRWFILTDNCLYYFEYTTDKEPRGIIPLENLSIREVDDPRKPNCFELYIPNNKGQLIKACKTEADGRVVEGNHMVYRISAPTQEEKDEWIKSIQAAVSVDPFYEMLAARKKRISVKKKQEQP
notes: Cloned in pET-8c (Antonny et al., 1997); also called Cytohesin-2; source: E. coli, purified (Ni-NTA HisTrap FF, Superdex 200)
- stoichiometry N [1]: 2

B2: Grp1_(14-399), diglycine variant, autoinhibited, in complex with the head group of PIP3 (IP4) (domain or fragment, mouse, UniProt O08967 14-399, looked up)
chain: EDLSLEEREELLDIRRRKKELIDDIERLKYEIAEVMTEIDNLTSVEESKTTQRNKQIAMGRKKFNMDPKKGIQFLIENDLLQSSPEDVAQFLYKGEGLNKTVIGDYLGERDDFNIKVLQAFVELHEFADLNLVQALRQFLWSFRLPGEAQKIDRMMEAFASRYCLCNPGVFQSTDTCYVLSFAIIMLNTSLHNHNVRDKPTAERFITMNRGINEGGDLPEELLRNLYESIKNEPFKIPEDDGNDLTHTFFNPDREGWLLKLGGRVKTWKRRWFILTDNCLYYFEYTTDKEPRGIIPLENLSIREVEDPRKPNCFELYNPSHKGQVIKACKTEADGRVVEGNHVVYRISAPSPEEKEEWMKSIKASISRDPFYDMLATRKRRIANKK
notes: Incubated with a 1.2 molar excess of inositol 1,3,4,5-tetrakisphosphate (IP4) before SEC-SAXS and NS-EM; source: E. coli BL21(DE3), purified (Ni-NTA, HiTrap Q, Superdex-200)
- stoichiometry N [2]: 2

B3: Grp1_(14-390), constitutively active construct lacking the polybasic motif (domain or fragment, mouse, UniProt O08967 14-390, looked up)
chain: EDLSLEEREELLDIRRRKKELIDDIERLKYEIAEVMTEIDNLTSVEESKTTQRNKQIAMGRKKFNMDPKKGIQFLIENDLLQSSPEDVAQFLYKGEGLNKTVIGDYLGERDDFNIKVLQAFVELHEFADLNLVQALRQFLWSFRLPGEAQKIDRMMEAFASRYCLCNPGVFQSTDTCYVLSFAIIMLNTSLHNHNVRDKPTAERFITMNRGINEGGDLPEELLRNLYESIKNEPFKIPEDDGNDLTHTFFNPDREGWLLKLGGRVKTWKRRWFILTDNCLYYFEYTTDKEPRGIIPLENLSIREVEDPRKPNCFELYNPSHKGQVIKACKTEADGRVVEGNHVVYRISAPSPEEKEEWMKSIKASISRDPFYDMLAT
notes: Grp1 (cytohesin-3), mouse, diglycine splice variant, residues 14-390 (lacks the polybasic region); also called fully active Grp1 dimer; source: E. coli BL21(DE3), purified (Ni-NTA, HiTrap Q, Superdex-200)
- stoichiometry N [2]: 2
